Test results from article PMC8699310, “Development of a Low-Molecular-Weight Aβ42 Detection System Using a Enzyme-Linked Peptide Assay” (Biomolecules, 2021).
Ends that are not written are not given here.

How the values were obtained:
[1] = target: T1, Aβ42 (Homo sapiens, UniProt P05067); experiment: Spiking and recovery test of Aβ42; details: PBS, 100 μM peptide assay, triplicate
T1 construct: purchased Abcam ab120301
Procedure: PBS and human serum were used as solutions for the spiking test. Each of the Aβ42 and Aβ40 stock solutions was diluted using PBS, and the mixture was diluted using human serum. The diluted samples were added to antibody-coated plates and incubated for 2 h. The binding conditions used for the antibody coating and the peptide, streptavidin, and TMB treatment steps are described above. To calculate the recovery ratio, we divided the signals of the mixtures by the signals of Aβ42.

[2] = target: T1, Aβ42; experiment: Binding of synthetic biotinylated peptide to Aβ42 captured on antibody-coated plate (enzyme-linked peptide assay, OD450); details: biotin-conjugated peptide serially diluted, 1 h, PBST, Aβ42 captured by anti-Aβ42 antibody (protein G plate), streptavidin-HRP/TMB, Hill-slope fitting, triplicate, read-out: dissociation constant (KD)
Procedure: ABPP was conjugated with biotin as a signal reporter, with a purity greater than 95%, as assessed using high-performance liquid chromatography. The binding affinities of peptides were estimated for each Aβ42- and antibody-coated plate. The coating methods followed the protocol described above, except for the use of PBST instead of TBST. After coating the plate with Aβ42, serially diluted peptide was added to the plate for 1 h. After peptide incubation, all wells were washed four times with PBST. Next, the wells were incubated with 100 µL of streptavidin-HRP (1:4000 in PBST) for 1 h. After incubation, the solution in the wells was washed four times with PBST. TMB solution was added to each well for 15 min. Next, 100 µL of 1 M H2SO4 was added to the wells to stop the reaction, and the absorbance was measured at 450 nm (OD450) using a microplate reader. To determine the detection range, serially diluted Aβ42 was added to the antibody-coated plates. After washing, the plate was incubated for 1 h with 100 µL of 100 µM peptide. Streptavidin and TMB treatment steps were performed as described above. Based on the measurements, the limit of detection (LOD) for the diagnostic system was calculated according to the formula from the IUPAC: LOD = 3 × SD/slope. To verify the specificity of our diagnostic system, other amyloid proteins were added to the antibody-coated plates. […]

T1 sequence (P05067 672-713 limits assumed): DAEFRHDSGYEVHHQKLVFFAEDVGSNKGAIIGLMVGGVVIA

| Substance | Average Recovery ([1]; Aβ40 + Aβ42 = 10 + 40 ng/mL, SD 12.46%, %RSD 12.84) [%] | Average Recovery ([1]; Aβ40 + Aβ42 = 20 + 40 ng/mL, SD 5.81%, %RSD 6.053) [%] | Average Recovery ([1]; Aβ40 + Aβ42 = 40 + 40 ng/mL, SD 10.51%, %RSD 10.15) [%] | Kd [2] [µM] |
| --- | --- | --- | --- | --- |
| Aβ42: Aβ42 (ab120301) purchased from Abcam; analyte spiked in recovery test | 97.02 | 96.04 | 104.5 | – |
| SEPQNIWQYLRN [ABPP] | – | – | – | 17.5 ± 2.98 |
